Columns and labels:
[1] = tested on: HEK293T cells; assay: Annexin V apoptosis assay in transfected HEK293T cells +/- 4OHT; type: cell-based, Human; conditions: for inducibility of apoptosis with 4OHT: 200 nM or 1 uM 4OHT, ~18-24 hours; for cell death observed: 1 uM 4OHT or solvent control
Procedure: Human Embryonic Kidney (HEK) 293T cells were transfected with 1 ug per 1E6 cells using Lipofectamine 3000 and incubated in DMEM+10% FBS+1% Pen/Strep media for 4 hours before adding 1 uM 4-hydroxytamoxifen (+4OHT) or solvent control (No 4OHT). The cells were incubated with 4OHT for 18-24 hours. The cells were then stained with Annexin V to detect apoptotic cells, as well as DAPI to detect dead cells.
HEK293T cells were transfected with varying amounts of DNA of a vector control (pLenti), with construct A tBID (lacking a LBD, C150, see FIG. 5B), or with C-ESR1 or D-ESR1 (FIG. 10, bottom), and assayed for apoptosis using either 200 nM OHT or 1 μM 4OHT.
To determine the effect of amount of DNA as well as 4OHT concentration on apoptosis induction, we titrated both the amount of DNA (2, 3, or 6 ug DNA per 1E6 cells) and the concentration of 4OHT. 500,000 cells HEK293T cells were plated in a 24-well plate. ˜2 hours after plating, appropriate amounts of DNA were transfected using Lipofectamine 3000 and incubated for 4 hours. Either ethanol solvent control, 200 nM 4OHT, or 1 uM 4OHT was added to the transfected cells then incubated for ˜18-24 hours. The cells were then stained as in Example 4. Intriguingly, C-ESR1 was not inducible in HEK293 Ts, unlike in Jurkat cells (Example 6, FIGS. 7 and 11A-B).

[2] = tested on: Jurkat cells; assay: Annexin V / PI apoptosis assay in transfected Jurkat cells +/- 4OHT; type: cell-based; conditions: for inducible apoptosis with 4OHT / background apoptosis / killing: 1 ug DNA per 1E6 cells; for inducible apoptosis with 4OHT: 1 uM 4OHT vs solvent control, 18-24 hrs; for background apoptosis / killing: solvent control; for induction of apoptosis with 4OHT / background cell death: 2 ug DNA per 1E6 cells, 20 hours; for induction of apoptosis with 4OHT: 200 nM or 1 uM 4OHT; for background cell death: ethanol solvent control
Procedure: Jurkat immortalized T lymphocytes were transfected with 1 ug per 1E6 cells using Neon electroporation and incubated in RPMI+20% FBS+0.1% Pen/Strep media for 4 hours before adding 1 uM 4-hydroxytamoxifen (+4OHT) or solvent control (No 4OHT). The cells were incubated with 4OHT for 18-24 hours. The cells were then stained with Annexin V to detect apoptotic cells, as well as propidium iodide (PI) to detect dead cells.
Jurkat cells were transfected with 1 ug of DNA per 1E6 cells using Neon electroporation, treated +/−4OHT for 18-24 hrs, and stained with Annexin V to detect apoptotic cells, as well as PI to detect dead cells (FIG. 5A).
One possibility is that the BID α3 and α6 helices are necessary and sufficient for tBID function. Therefore, we made various truncations that included α3 and α6, as well as various other helices. Jurkat cells were transfected with 1 ug DNA per 1E6 cells, treated with 4OHT or solvent control, then stained as in Example 4. […] One exception was the ESR-D tBID fusion construct, which has the Bid α3, α6 and α7 helices (FIG. 6). 0.3 uM staurosporine (STP) and DMSO solvent control were included as controls.
Jurkat cells were transfected with 1 ug DNA per 1E6 cells, treated with 4OHT or solvent control, then stained as in Example 4. The fold change in apoptosis upon 4OHT addition was determined by dividing the percent Annexin V positive cells treated with 4OHT by the percent Annexin V positive cells treated with a solvent control (FIG. 8). The fold change was calculated from one experiment. As electroporation of empty vector always results in some background death of cells, percent Annexin V positive cells of pLenti was used as the background and subtracted from total percentage to obtain “background subtracted” fold change values.
To determine the effect of 4OHT concentration on apoptosis induction in Jurkat cells, Jurkat cells were transfected with 2 ug DNA per 1E6 cells. 4 hours post-transfection, either ethanol solvent control, 200 nM 4OHT, or 1 uM 4OHT was added to the transfected cells then incubated for 20 hours. The cells were then stained with Annexin V and PI to measure cell death.

[3] = tested on: primary T cells; assay: Annexin V / PI apoptosis assay in transduced primary T cells +/- 4OHT; type: cell-based; conditions: lentiviral transduction, 20 hours
Procedure: To characterize tBID-ESR1 safety switch function in primary T cells, D504C cells were transduced with lentiviral constructs containing either C-ESR1 or D-ESR1. The cells were maintained and expanded in media containing 300 IU/mL IL-2. To induce apoptosis, 1E6 cells were resuspended in 1 mL of LymphoONE media containing 1% human serum and 1 uM 4OHT. As a solvent control, same volume of ethanol was added to the cells. 20 hours after 4OHT addition, cells were stained with Annexin V and PI to measure cell death as described in Example 9.

[4] = tested on: primary T cells; assay: Caspase-3/7 Green time course of 4OHT-mediated death in transduced primary T cells; type: cell-based
Procedure: To characterize tamoxifen-induced killing activity in transfected Jurkat cells over time, Jurkat cells were transfected with 1 ug DNA per 1 E6 cells as described previously above. 24 hours post-transfection, Jurkat cells were harvested and resuspended in complete RPMI media containing 10% FBS, 1% Pen/Strep, and 5 uM Caspase-3/7 Green Reagent (Essen Bioscience 4440). The resuspended cells were plated onto poly-L-ornithine treated 384-well plates and left at room temperature for 30 minutes. Then, RPMI+10% FBS+1% Pen/Strep+5 uM Caspase-3/7 Green Reagent containing appropriate 2×4OHT or EtOH was added to the cells. Induction of apoptosis was measured using the Caspase-3/7 dye, which couples caspase-3/7 recognition motif with a DNA intercalating dye. Cells turn green if and only if caspase-3/7-mediated apoptosis occurs. The cells were imaged using the IncuCyte S3 Live-Cell Analysis System.
Primary T cells transduced with D-ESR1 were prepared similarly to Jurkat cells in Example 9 and 4OHT-mediated death was measured using the Caspase-3/7 Green Reagent as described in Example 9.

[5] = HEK293T, 2, 3, or 6 ug DNA per 1E6 cells
[6] = HEK293T, 1 ug per 1E6 cells, 18-24 hours

Row | Molecule | inducibility of apoptosis with 4OHT [1, 5] | inducible apoptosis with 4OHT [2] | background apoptosis / killing [2] | induction of apoptosis with 4OHT [2] | cell death observed [1, 6] | background cell death [2] | further results
1 | D-ESR1: fusion protein SEQ ID NO: 5; tBID helices α3, α6 and α7 fused to the N-terminus of ESR1 LBD (protein, tBID fusion protein C3454 (D-ESR1), tBID helices α3, α6 and α7 fused to the N-terminus of ESR1 LBD) SQEDIIRNIARHLAQVGDSMDRSIPPGEKTMLVLALLLAKKVASHTPSLLRDVFHTTVNFINQNLGSKKNSLALSLTADQMVSALLDAEPPILYSEYDPTRPFSEASMMGLLTNLADRELVHMINWAKRVPGFVDLTLHDQVHLLECAWLEILMIGLVWRSMEHPGKLLFAPNLLLDRNQGKCVEGMVEIFDMLLATSSRFRMMNLQGEEFVCLKSIILLNSGVYTFLSSTLKSLEEKDHIHRVLDKITDTLIHLMAKAGLTLQQQHQRLAQLLLILSHIRHMSNKGMEHLYSMKCKNVVPLYDLLLEMLDAHRLHAPT | increases the window of induction | showed inducible apoptosis | low background apoptosis | consistently induced apoptosis | – | – | inducibility of apoptosis with 4OHT ([1]; HEK293T, 2, 3, or 6 ug DNA per 1E6 cells, listed as C3454): retained activity across cell types; background apoptosis ([1]; HEK293T, 2, 3, or 6 ug DNA per 1E6 cells, ethanol solvent control): does not increase background; inducible killing with 4OHT, Annexin V and PI ([3]; 1 uM 4OHT): greatest inducible killing; background cell death, Annexin V and PI ([3]; ethanol solvent control): low background; background apoptosis, Caspase-3/7 Green Reagent [4]: low background; inducible apoptosis, Caspase-3/7 Green Reagent ([4]; 4OHT): inducible apoptosis is seen
2 | C-ESR1: fusion protein SEQ ID NO: 7; tBID helices α3, α4, α5 and α6 fused to the N-terminus of ESR1 LBD (protein, tBID fusion protein C3452 (C-ESR1), tBID helices α3, α4, α5 and α6 fused to the N-terminus of ESR1 LBD) MSQEDIIRNIARHLAQVGDSMDRSIPPGLVNGLALQLRNTSRSEEDRNRDLATALEQLLQAYPRDMEKEKTMLVLALLLAKKVASHTPGSKKNSLALSLTADQMVSALLDAEPPILYSEYDPTRPFSEASMMGLLTNLADRELVHMINWAKRVPGFVDLTLHDQVHLLECAWLEILMIGLVWRSMEHPGKLLFAPNLLLDRNQGKCVEGMVEIFDMLLATSSRFRMMNLQGEEFVCLKSIILLNSGVYTFLSSTLKSLEEKDHIHRVLDKITDTLIHLMAKAGLTLQQQHQRLAQLLLILSHIRHMSNKGMEHLYSMKCKNVVPLYDLLLEMLDAHRLHAPT | not inducible | showed inducible apoptosis | – | – | – | – | –
3 | full length Bid: full length Bid expressed alone in HEK293T cells (protein, UniProt P55957 1-195, looked up, full-length, full length Bid expressed alone in HEK293T cells) MDCEVNNGSSLRDECITNLLVFGFLQSCSDNSFRRELDALGHELPVLAPQWEGYDELQTDGNRSSHSRLGRIEADSESQEDIIRNIARHLAQVGDSMDRSIPPGLVNGLALQLRNTSRSEEDRNRDLATALEQLLQAYPRDMEKEKTMLVLALLLAKKVASHTPSLLRDVFHTTVNFINQNLRTYVRSLARNGMD | – | – | – | – | negligible death | – | –
4 | ESR1-D: fusion protein SEQ ID NO: 4; ESR1 LBD fused to N-terminus of tBID with Bid α3, α6 and α7 helices (protein, tBID fusion protein C3445 (ESR1-D), ESR1 LBD fused to N-terminus of tBID with Bid α3, α6 and α7 helices) MKKNSLALSLTADQMVSALLDAEPPILYSEYDPTRPFSEASMMGLLTNLADRELVHMINWAKRVPGFVDLTLHDQVHLLECAWLEILMIGLVWRSMEHPGKLLFAPNLLLDRNQGKCVEGMVEIFDMLLATSSRFRMMNLQGEEFVCLKSIILLNSGVYTFLSSTLKSLEEKDHIHRVLDKITDTLIHLMAKAGLTLQQQHQRLAQLLLILSHIRHMSNKGMEHLYSMKCKNVVPLYDLLLEMLDAHRLHAPTGSSQEDIIRNIARHLAQVGDSMDRSIPPGEKTMLVLALLLAKKVASHTPSLLRDVFHTTVNFINQNL | – | high inducibility | low background killing | robustly induced at either 200 nM or 1 uM 4OHT | – | relatively high background levels of cell death | –
5 | ESR1-C: fusion protein SEQ ID NO: 6; ESR1 LBD fused to N-terminus of tBID truncation C (protein, tBID fusion protein C3443 (ESR1-C)) MKKNSLALSLTADQMVSALLDAEPPILYSEYDPTRPFSEASMMGLLTNLADRELVHMINWAKRVPGFVDLTLHDQVHLLECAWLEILMIGLVWRSMEHPGKLLFAPNLLLDRNQGKCVEGMVEIFDMLLATSSRFRMMNLQGEEFVCLKSIILLNSGVYTFLSSTLKSLEEKDHIHRVLDKITDTLIHLMAKAGLTLQQQHQRLAQLLLILSHIRHMSNKGMEHLYSMKCKNVVPLYDLLLEMLDAHRLHAPTGSSQEDIIRNIARHLAQVGDSMDRSIPPGLVNGLALQLRNTSRSEEDRNRDLATALEQLLQAYPRDMEKEKTMLVLALLLAKKVASHTP | – | – | – | – | – | relatively high background levels of cell death | –
6 | C150: truncated BID (tBID), a potent apoptosis inducer; construct A tBID lacking a LBD (protein, UniProt P55957 61-195, looked up, BH3-interacting domain death agonist p15) BH3-interacting domain death …: GNRSSHSRLGRIEADSESQEDIIRNIARHLAQVGDSMDRSIPPGLVNGLALQLRNTSRSEEDRNRDLATALEQLLQAYPRDMEKEKTMLVLALLLAKKVASHTPSLLRDVFHTTVNFINQNLRTYVRSLARNGMD | – | – | – | – | significant death | – | Annexin V+ cells ([1]; HEK293T, 1 ug per 1E6 cells, regardless of the presence of tamoxifen, 18-24 hours): 60-70%

From patent publication US12599665B2, “Gene fusions for control of genetically modified cells” (A2 Biotherapeutics, Inc., priority 2020, dated 2026)
